From patent US20190227052A1 (published 2019)
Positions count from the first letter of the chain named. Each block holds one binder with its values, some of them ahead of it.

Target: T1, human NRP1 protein (human, UniProt O14786 22-856, limits assumed)
T1 construct: also called hNRP1 protein; neuropilin 1
T1 sequence (looked up): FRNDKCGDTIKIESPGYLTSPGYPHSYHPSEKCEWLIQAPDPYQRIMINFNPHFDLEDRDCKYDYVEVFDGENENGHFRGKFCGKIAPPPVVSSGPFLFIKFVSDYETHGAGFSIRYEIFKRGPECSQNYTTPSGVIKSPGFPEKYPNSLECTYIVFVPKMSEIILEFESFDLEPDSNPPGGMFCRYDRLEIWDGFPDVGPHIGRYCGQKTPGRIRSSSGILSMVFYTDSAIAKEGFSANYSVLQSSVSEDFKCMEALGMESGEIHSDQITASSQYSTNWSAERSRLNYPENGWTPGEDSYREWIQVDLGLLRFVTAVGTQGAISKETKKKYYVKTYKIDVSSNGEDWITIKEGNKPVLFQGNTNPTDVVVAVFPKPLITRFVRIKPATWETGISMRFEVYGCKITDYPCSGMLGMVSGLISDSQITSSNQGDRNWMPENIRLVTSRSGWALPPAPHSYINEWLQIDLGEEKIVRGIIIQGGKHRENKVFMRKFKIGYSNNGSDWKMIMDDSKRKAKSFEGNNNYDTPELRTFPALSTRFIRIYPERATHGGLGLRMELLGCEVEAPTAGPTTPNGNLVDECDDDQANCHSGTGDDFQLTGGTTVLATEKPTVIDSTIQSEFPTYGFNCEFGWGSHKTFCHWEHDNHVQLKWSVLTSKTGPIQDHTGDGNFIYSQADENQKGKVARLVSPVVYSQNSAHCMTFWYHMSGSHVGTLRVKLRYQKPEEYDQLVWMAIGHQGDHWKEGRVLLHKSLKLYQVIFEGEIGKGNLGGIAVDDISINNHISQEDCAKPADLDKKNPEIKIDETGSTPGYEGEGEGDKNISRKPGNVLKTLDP
Experiment: SPR, Biacore T100

Kd: 295 nM
B1: 3H10 scFv (scFv, V domains shown)
VH: EVQLLESGGGLVQFQQSLRLSQAASQFTFSSYYMSWVRQAFGKGLEWVSAISPGSSNKYYADSVKGRFTISRDNSKNTLYLQMNELRAEDTAVYYCARRKYMFDYWGQGTLVTVSS
VL: GSVLTQPPSASGTPGQRVTISCTGESSNIGNNDVYWYQQLPGTAFKLLIYSQSNRPSGMPDRFSGSKSGTSASLAISGLRSEDEADYYCASWDSSLSGYVFGGGTKLTVTL

Kd: 89.4 nM
B2: 1A03 scFv (scFv, V domains shown)
VH: B1 VH with Q15G, Q16G, Q26G, P53F, K65Q, Y101K, M102S
VL: QSVLTQFFSASGTPGQRVTISCSGFSSNIGNNDVSWYQQLFGTAPKLLIYSCNNRPSGVPDRFSGSKSGTSASLAISGLRSSDEADYYCGAWVASLSAYVFGGGTKLTVTL
